Measured values from paper PMC2582960, “A Structural Model of the Staphylococcus aureus ClfA–Fibrinogen Interaction Opens New Avenues for the Design of Anti-Staphylococcal Therapeutics” (PLoS Pathogens, 2008).

B1: unnamed (parent)
chain 1: GEGQQHHLGGAKQAGDV
chain 2: GTDITNQLTNVTVGIDSGTTVYPHQAGYVKLNYGFSVPNSAVKGDTFKITVPKELNLNGVTSTAKVPPIMAGDQVLANGVIDSDGNVIYTFTDYVNTKDDVKATLTMPAYIDPENVKKTGNVTLATGIGSTTANKTVLVDYEKYGKFYNLSIKGTIDQIDKTNNTYRQTIYVNPSGDNVIAPVLTGNLKPNTDSNALIDQQNTSIKVYKVDNAADLSESYFVNPENFEDVTNSVNITFPNPNQYKVEFNTPDDQITTPYIVVVNGHIDPNSKGDLALRSTLYGYNSNIIWRSMSWDNEVAFNNGSGSGDGIDKPVVP

Variants of: B1
Experiment: solid-phase competition (inhibition) assay
Details: with partner chain of the complex shown;; read off a plot

Variant	response (Absorbance (405 nm))
chain 1 GAGQQHHLGGAKQAGDV	0.21
chain 1 GEGQQHHLGGAAQAGDV	0.23
chain 1 GEGAQHHLGGAKQAGDV	0.2
chain 1 GEGQQHALGGAKQAGDV	0.28
chain 1 AEGQQHHLGGAKQAGDV	0.25
chain 1 GEGQAHHLGGAKQAGDV	0.23
chain 1 GEGQQHHLGAAKQAGDV	0.25
chain 1 GEAQQHHLGGAKQAGDV	0.2
chain 1 GEGQQHHLGGAKQSGDV	0.29
chain 1 GEGQQHHLGGSKQAGDV	0.11
chain 1 GEGQQHHLGGAKAAGDV	0.29
chain 1 GEGQQHHLGGAKQAGDA	0.13
chain 1 GEGQQAHLGGAKQAGDV	0.31
chain 1 GEGQQHHAGGAKQAGDV	0.15
chain 1 GEGQQHHLAGAKQAGDV	0.21
chain 1 GEGQQHHLGGAKQAADV	0.28
